{"source": "patent US20240124586A1", "about": "(WUXI BIOLOGICS IRELAND, published 2024)", "binders": {"B1": {"name": "W3438-T3U4.E17-1.uIgG4.SP, bispecific anti-CD3 x CD19 (bispecific antibody)", "heavy 1": "QVQLVQSGAEVKKPGSSVKVSCKASGFAFTDYYIHWVRQAPGQGLEWMGWISPGNVNTKYNENFKGRVTITADKSTSTAYMELSSLRSEDTAVYYCARDGYSLYYFDYWGQGTLVTVLEDLKNVFPPEVAVFEPSEAEISHTQKATLVCLATGFYPDHVELSWWVNGKEVHSGVCTDPQPLKEQPALQDSRYALSSRLRVSATFWQNPRNHFRCQVQFYGLSENDEWTQDRAKPVTQIVSAEAWGRYGPPCPPCPAPEFLGGPSVFLFPPKPKDTLMISRTPEVTCVVVDVSQEDPEVQFNWYVDGVEVHNAKTKPREEQFNSTYRVVSVLTVLHQDWLNGKEYKCKVSNKGLPSSIEKTISKAKGQPREPQVYTLPPCQEEMTKNQVSLWCLVKGFYPSDIAVEWESNGQPENNYKTTPPVLDSDGSFFLYSRLTVDKSRWQEGNVFSCSVMHEALHNHYTQKSLSLSLGK", "light 1": "DIVMTQSPDSLAVSLGERATINCKSSQSLLNSRTRKNYLAWYQQKPGQPPKLLIYWASTRQSGVPDRFSGSGSGTDFTLTISSLQAEDVAVYYCTQSHTLRTFGGGTKVEIKPDIQNPDPAVYQLRDSKSSDKSVCLFTDFDSQTQVSQSKDSDVYITDKCVLDMRSMDFKSNSAVAWSQKSDFACANAFQNSIIPEDTFFPSPESS", "heavy 2": "QMQLVQSGPEVKKPGTSVKVSCKASGYAFTSYNMYWVRQARGQRLEWIGYIDPYNGDTTYNQKFKGRVTITRDMSTSTAYMELSSLRSEDTAVYYCLTTAYAMDYWGQGTLVTVSSASTKGPSVFPLAPCSRSTSESTAALGCLVKDYFPEPVTVSWNSGALTSGVHTFPAVLQSSGLYSLSSVVTVPSSSLGTKTYTCNVDHKPSNTKVDKRVESKYGPPCPPCPAPEFLGGPSVFLFPPKPKDTLMISRTPEVTCVVVDVSQEDPEVQFNWYVDGVEVHNAKTKPREEQFNSTYRVVSVLTVLHQDWLNGKEYKCKVSNKGLPSSIEKTISKAKGQPREPQVCTLPPSQEEMTKNQVSLSCAVKGFYPSDIAVEWESNGQPENNYKTTPPVLDSDGSFFLVSRLTVDKSRWQEGNVFSCSVMHEALHNHYTQKSLSLSLGK", "light 2": "DIQLTQSPSFLSASVGDRVTITCSASSTVNYMHWYQQKPGKAPKLLIYSTSNLASGVPSRFSGSGSGTEFTLTISSLQPEDFATYYCHQWSSYPYTFGQGTKLEIKRTVAAPSVFIFPPSDEQLKSGTASVVCLLNNFYPREAKVQWKVDNALQSGNSQESVTEQDSKDSTYSLSSTLTLSKADYEKHKVYACEVTHQGLSSPVTKSFNRGEC", "notes": "also called E17-Design_2-QQQQ (IgG4); E17-IgG4; copies: 1 + 1 + 1 + 1"}, "B2": {"name": "W3248-U6T5.G25-1.uIgG4.SP, bispecific anti-PD-1 x CTLA-4 (bispecific antibody)", "heavy": "not shown", "light 1": "SYELTQPLSVSVALGQTARITCGGDNIGNKDVHWYQQKPGQAPVLVIYRDSNRPSGIPEGFSGSNSGNTATLTISRAQAGDEADYYCQVWDSIWVFGGGTKLTVLPDIQNPDPAVYQLRDSKSSDKSVCLFTDFDSQTQVSQSKDSDVYITDKCVLDMRSMDFKSNSAVAWSQKSDFACANAFQNSIIPEDTFFPSPESS", "light 2": "EIVLTQSPDFQSVTPKEKVTITCSANSALSYMYWYQQKPDQSPKLWVHGTSNLASGVPSRFSGSGSGTDFTLTINSLEAEDAATYYCHHWSNTQWTFGGGTKVEIKRTVAAPSVFIFPPSDEQLKSGTASVVCLLNNFYPREAKVQWKVDNALQSGNSQESVTEQDSKDSTYSLSSTLTLSKADYEKHKVYACEVTHQGLSSPVTKSFNRGEC", "notes": "IgG4 (S228P); also called WBP3248-U6T5.G25-1-uIgG4.SP; U6T5.G25.IgG4"}, "B3": {"name": "W3248-U6T1.G25R-1.uIgG4.SP, bispecific anti-PD-1 x CTLA-4 (bispecific antibody)", "heavy": "EVQLLESGGGLVQPGGSLRLSCAASGFTFSSHAMSWVRQAPGKGLEWVSTITGGGGSIYYADSVKGRFTISRDNSKNTLYLQMNSLRAEDTAVYYCAKNRAGEGYFDYWGQGTLVTVSSASTKGPSVFPLAPCSRSTSESTAALGCLVKDYFPEPVTVSWNSGALTSGVHTFPAVLQSSGLYSLSSVVTVPSSSLGTKTYTCNVDHKPSNTKVDKRVGGGGSGGGGSQVQLVESGGGVVQPGRSLRLSCAASGFTFSSYTMHWVRQAPGKGLEWVTFISYDGNNKYYADSVKGRFTISRDNSKNTLYLQMNSLRAEDTAIYYCARTGWLGPFDYWGQGTLVTVLEDLKNVFPPEVAVFEPSEAEISHTQKATLVCLATGFYPDHVELSWWVNGKEVHSGVCTDPQPLKEQPALQDSRYALSSRLRVSATFWQNPRNHFRCQVQFYGLSENDEWTQDRAKPVTQIVSAEAWGRYGPPCPPCPAPEFLGGPSVFLFPPKPKDTLMISRTPEVTCVVVDVSQEDPEVQFNWYVDGVEVHNAKTKPREEQFNSTYRVVSVLTVLHQDWLNGKEYKCKVSNKGLPSSIEKTISKAKGQPREPQVYTLPPSQEEMTKNQVSLTCLVKGFYPSDIAVEWESNGQPENNYKTTPPVLDSDGSFFLYSRLTVDKSRWQEGNVFSCSVMHEALHNHYTQKSLSLSLG", "light 1": "SYELTQPLSVSVALGQTARITCGGDNIGNKDVHWYQQKPGQAPVLVIYRDSNRPSGIPEGFSGSNSGNTATLTISRAQAGDEADYYCQVWDSIWVFGGGTKLTVLGQPKAAPSVTLFPPSSEELQANKATLVCLISDFYPGAVTVAWKADSSPVKAGVETTTPSKQSNNKYAASSYLSLTPEQWKSHKSYSCQVTHEGSTVEKTVAPTECS", "light 2": "not shown", "notes": "IgG4 (S228P); also called U6T1.G25R.IgG4"}}, "key": {"FcγRIIa (H167)": {"target": "T1, FcγRIIa (H167) (UniProt P12318 36-218, limits assumed)", "T1 sequence (looked up)": "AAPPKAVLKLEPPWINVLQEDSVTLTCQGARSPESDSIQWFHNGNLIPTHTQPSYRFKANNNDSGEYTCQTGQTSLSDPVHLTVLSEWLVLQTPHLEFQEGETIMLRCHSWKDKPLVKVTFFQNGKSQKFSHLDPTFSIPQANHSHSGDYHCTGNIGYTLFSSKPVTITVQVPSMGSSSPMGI", "assay": "SPR (Biacore), receptor captured on anti-his chip, steady state model", "description": "(§1) Antibody binding affinity to FcγRs was detected using Biacore T200 (or Biacore 8K). Each receptor was captured on an anti-his antibody immobilized CM5 sensor chip (GE). Antibodies at different concentrations were injected over the sensor chip at a flow rate of 30 uL/min for an association phase of 60 s, followed by 60 s dissociation. The chip was then regenerated by 10 mM glycine (pH 1.5) after each binding cycle.\n(§2) The sensorgrams of blank surface and buffer channel were subtracted from the test sensorgrams. The experimental data was fitted by 1:1 model using Langmiur analysis (for FcγRI) or steady state model (for other receptors). A molecular weight of 150 KDa was used to calculate the molar concentration of antibodies."}, "FcγRIIa (R167)": {"target": "T2, FcγRIIa (R167) (UniProt P12318 36-218, limits assumed)", "T2 sequence (looked up)": "T1 sequence (looked up) with H132R", "assay": "SPR (Biacore), receptor captured on anti-his chip, steady state model", "description": "as §1, §2"}, "FcγRIIb": {"target": "T3, FcγRIIb (UniProt P31994 46-217, limits assumed)", "T3 sequence (looked up)": "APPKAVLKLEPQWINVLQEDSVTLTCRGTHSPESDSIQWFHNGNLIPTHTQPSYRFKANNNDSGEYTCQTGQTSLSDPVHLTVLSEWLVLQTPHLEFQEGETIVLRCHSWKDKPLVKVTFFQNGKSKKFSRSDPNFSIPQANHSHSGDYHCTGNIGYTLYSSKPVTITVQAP", "assay": "SPR (Biacore), receptor captured on anti-his chip, steady state model", "description": "as §1, §2"}, "FcγRIIIa (F176)": {"target": "FcγRIIIa (F176) (UniProt P08637 17-208)", "sequence (P08637 17-208 limits assumed)": "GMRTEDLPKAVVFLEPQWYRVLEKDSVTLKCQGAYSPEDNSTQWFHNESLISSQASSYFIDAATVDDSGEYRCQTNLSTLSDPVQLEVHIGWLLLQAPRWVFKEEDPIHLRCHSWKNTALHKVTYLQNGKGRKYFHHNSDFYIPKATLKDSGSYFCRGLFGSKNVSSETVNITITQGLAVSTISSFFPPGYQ", "assay": "SPR (Biacore), receptor captured on anti-his chip, steady state model", "description": "as §1, §2"}, "FcγRIIIa (V176)": {"target": "FcγRIIIa (V176) (UniProt P08637 17-208)", "sequence (P08637 17-208 F176V limits assumed)": "as the sequence (P08637 17-208 limits assumed) above, with F160V counted along it", "assay": "SPR (Biacore), receptor captured on anti-his chip, steady state model", "description": "as §1, §2"}, "[1]": {"target": "T4, human CTLA-4 on engineered 293F cells (W316-293F.hPro1.FL) (human, UniProt P16410 36-223)", "T4 construct": "whole, on cells; also called human CTLA-4 engineered cells; CTLA-4+ cells", "T4 sequence (P16410 36-223, change not shown)": "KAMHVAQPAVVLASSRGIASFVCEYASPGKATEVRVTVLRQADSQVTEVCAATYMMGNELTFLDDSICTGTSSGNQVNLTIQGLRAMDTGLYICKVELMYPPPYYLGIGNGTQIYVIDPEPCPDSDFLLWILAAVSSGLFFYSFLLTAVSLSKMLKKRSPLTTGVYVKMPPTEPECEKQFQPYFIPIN", "assay": "FACS binding to human CTLA-4 engineered cells", "description": "3.16-fold titrated Abs with 1% BSA DPBS from 200 nM to 0.002 nM were added to the cells. Plates were incubated at 4° C. for 1 hour. After wash, […] 1:150 diluted PE-labeled goat anti-human antibody (Jackson 109-115-098) was added to each well and the plates were incubated at 4° C. for 1 hour. The binding of the antibodies onto the cells was tested by flow cytometry and the mean fluorescence intensity (MFI) was analyzed by FlowJo."}, "[2]": {"target": "cynomolgus CTLA-4 protein (cynomolgus, UniProt G7PL88 36-161, Probably biotinylated for streptavidin-PE detection, as described for the human CTLA-4 reagent in paragraph 775; the letters cannot carry this.)", "sequence (G7PL88 entry or part of it limits assumed)": "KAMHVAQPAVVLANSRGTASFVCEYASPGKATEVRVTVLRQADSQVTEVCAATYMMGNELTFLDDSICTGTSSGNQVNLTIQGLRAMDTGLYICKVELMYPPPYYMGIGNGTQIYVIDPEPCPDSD", "assay": "FACS competition: blocks cynomolgus CTLA-4 protein binding to human CD80 engineered cells", "description": "Competitive FACS was used to test whether the antibodies could block human or cynomolgus CTLA-4 binding to hCD80 on cell surface. […] Then the mixtures of antibody and CTLA-4 were added to the cells and incubated for 1 hour at 4° C. The cells were washed two times with 200 μl FACS washing buffer (DPBS containing 1% BSA). Streptavidin PE (BD Pharmingen-554061) 1 to 600 diluted in FACS buffer was added to the cells and incubated at 4° C. for 1 hour. Additional washing steps were performed two times with 200 μL FACS washing buffer followed by centrifugation at 1500 rpm for 4 minutes at 4° C. Finally, the cells were resuspended in 100 μL FACS washing buffer and fluorescence values were measured by flow cytometry and analyzed by FlowJo."}, "[3]": {"target": "T5, human PD-1 ECD mouse Fc fusion (W305-hPro1.ECD.mFc) (human, UniProt Q15116 25-170)", "T5 construct": "extracellular domain; In-house protein; also called hPD-1-ECD; human PD-1 coated on the plate", "T5 sequence (Q15116 25-170)": "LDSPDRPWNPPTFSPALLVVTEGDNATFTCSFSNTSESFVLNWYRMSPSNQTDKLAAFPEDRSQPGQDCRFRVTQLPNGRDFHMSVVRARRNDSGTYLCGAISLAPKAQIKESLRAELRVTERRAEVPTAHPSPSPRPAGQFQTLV", "assay": "dual binding ELISA, PD-1 ECD.mFc coated, detection with biotinylated CTLA-4 ECD.hFc; first antibody named, first value; PD-1 coated, biotinylated CTLA-4 detection", "description": "In order to test whether the bispecific antibodies could bind to both hPD-1 and hCTLA-4, an ELISA assay was developed as below. A 96-well ELISA plate (Nunc MaxiSorp, ThermoFisher) was coated overnight at 4° C. with 0.5 μg/ml antigen-1 (hPD-1-ECD, W305-hPro1.ECD.mFc) in carbonate-bicarbonate buffer. After a 1 hour blocking step with 2% (w/v) bovine serum albumin (Pierce) dissolved in PBS, serial dilutions of the different PD-1×CTLA-4 bispecific antibodies in PBS containing 2% BSA PBS were incubated on the plates for 1 hour at room temperature. Following the incubation, plates were washed three times with 300 μL per well of PBS containing 0.5% (v/v) Tween 20. […] After washing the plates three times, Streptavidin-HRP (Lifetechnologies, #SNN1004) (1:20000 diluted) was added and incubated on the plates for 1 hour at room temperature. After washing six times with […] per well of PBS containing 0.5% (v/v) Tween 20, 100 μL tetramethylbenzidine (TMB) substrate was added for the detection per well. The reaction was stopped after approximately 5 minutes through the addition of […] per well of 2 M HCl. The absorbance of the wells was measured at 450 nm with a multiwall plate reader (SpectraMax® M5e)."}}, "note": "Residue numbers refer to the chain shown, from its start. Numbers in names are those of the source.", "data": [{"binder": "B1", "values": [{"measurement": "Kd", "setting": "FcγRIIa (H167)", "result": 20.5, "unit": "µM"}, {"measurement": "Kd", "setting": "FcγRIIa (R167)", "result": 15.8, "unit": "µM"}, {"measurement": "Kd", "setting": "FcγRIIb", "result": 24.1, "unit": "µM"}, {"measurement": "Kd", "setting": "FcγRIIIa (F176)", "result": 29.3, "unit": "µM"}, {"measurement": "Kd", "setting": "FcγRIIIa (V176)", "result": 14, "unit": "µM"}]}, {"binder": "B2", "values": [{"measurement": "EC50", "setting": "[1]", "result": 0.00317, "unit": "µM"}, {"measurement": "IC50", "setting": "[2]", "result": 0.00214, "unit": "µM"}]}, {"binder": "B3", "values": [{"measurement": "EC50", "setting": "[3]", "result": 0.000107, "unit": "µM"}]}]}
